{
  "source": "patent US20100247558A1",
  "about": "(RAMOT AT TEL AVIV UNIVERSITY, published 2010)",
  "key": {"CD4 protein": {"molecular_target": "T1, CD4 protein (UniProt P01730 26-394)", "T1 construct": "also called soluble CD4", "experiment": "ELISA: m1 phage captured by anti-M13 antibody, incubated with CD4, probed with anti-CD4 mAb"}, "[1]": {"molecular_target": "T2, gp120451 (gp120 of HIV-1 isolate 451) (HIV-1 isolate 451)", "T2 construct": "also called soluble monomeric gp120451", "experiment": "quantitative ELISA (FIG. 7)"}},
  "note": "Values joined by “and” are separate entries in the source; they are usually repeats but may differ in a detail not shown here. Equal values may be shown once. Where no end group is shown, it is not given here.",
  "data": [
    {"binder": "CDRRDLPQWAKREC (not fully specified (C-terminus); cysteine pairing not given here; also: fused to N terminus of phage pVIII (mosaic fth1 phage), Tested as a fusion to protein 8 on filamentous phage (fth1 vector, mosaic phage); 12mer flanked by constant cysteines; not shown: fd phage protein 8 (pVIII) display carrier at the peptide's C end)", "note": "[m1 peptide (phage-displayed)]", "values": [
      {"measurement": "binding result", "setting": "CD4 protein", "value": "no binding"},
      {"measurement": "Kd", "setting": "[1]", "value": "0.069 µM and 0.0692 µM"}
    ]}
  ]
}
